# Data from patent US20150307603A1 (MODIQUEST B V, published 2015).
# Non-standard residues stand in square brackets, D forms with d. No end group written: not given here. Cit = NC(=O)NCCC[C@H](N)C(=O)O
# B1: RhmAb2.102 (antibody, human IgG1, lambda)
# heavy: not shown
# light: QSVLTQPPSMSAAPGQKVTISCSGSSSNIGNNYVSWYQQVPGTAPKLLIYDDNKRPSGIPGRFSGSKSATSATLGITGLQAGDEADYYCGSWDDNLSVVLFGGGTKLTVLGQPKAAPSVTLFPPSSEELQANKATLVCLISDFYPGAVTVAWKADSSPVKAGVETTTPSKQSNNKYAASSYLSLTPEQWKSHRSYSCQVTHEGSTVEKTVAPTECS
# notes: Human IgG1 lambda; also called Rhm2.102
# Key:
# [1] = target: T1, peptide no. 9 (human histone 2A) (human, also: biotin-labelled); assay: ELISA, Ab 0.00064 ug/well
# T1 construct: also called peptide 9
# T1 peptide: DNKKT[Cit]IIPRHL
# Method: (§1) Biotin and citrulline-containing peptides derived from histone 2A were immobilized on NEUTRAVIDIN®-coated 96-well ELISA plates (0.3 μg/well). CFC-1 and CFC-0 were coated at the same concentration and served as positive and negative controls, respectively, for specific anti-citrulline reactivity and as coating controls. Non-coated wells were used to test for aspecific binding of the antibodies. […] Detection of bound anti-citrulline antibodies was performed by incubating the wells with rabbit anti-human HRP (1:2000) for 1 hour at RT followed by incubation with TMB substrate. The resulting OD (y-axis) is a measure for antibody binding.
# [2] = target: T2, peptide no. 2 (human histone 2A) (human, also: biotin-labelled); assay: ELISA, Ab 0.00064 ug/well
# T2 construct: also called peptide 2
# T2 peptide: AKAKS[Cit]SSRAGL
# Method: as §1
# CFC-1 [3] = target: T3, CFC-1; assay: ELISA, Ab 0.00064 ug/well
# T3 construct: Positive control for anti-citrulline reactivity; also called cfc1 XG; Cfc1-peptide
# Method: as §1
# [4] = target: T4, peptide no. 10 (human histone 2A) (human, also: biotin-labelled); assay: ELISA, Ab 10 ug/well
# T4 construct: also called peptide 10
# T4 peptide: TRIIP[Cit]HLQLAI
# Method: as §1
# [5] = target: T5, peptide no. 12 (human histone 2A) (human, also: biotin-labelled); assay: ELISA, Ab 10 ug/well
# T5 construct: also called peptide 12
# T5 peptide: NKLLG[Cit]VTIAQG
# Method: as §1
# [6] = target: T6, peptide no. 4 (human histone 2A) (human, also: biotin-labelled); assay: ELISA, Ab 10 ug/well
# T6 construct: also called peptide 4
# T6 peptide: QFPVG[Cit]VHRLLR
# Method: as §1
# [7] = target: T7, peptide no. 6 (human histone 2A) (human, also: biotin-labelled); assay: ELISA, Ab 10 ug/well
# T7 construct: also called peptide 6
# T7 peptide: VHRLL[Cit]KGNYSE
# Method: as §1
# [8] = target: T8, peptide no. 8 (human histone 2A) (human, also: biotin-labelled); assay: ELISA, Ab 10 ug/well
# T8 construct: also called peptide 8
# T8 peptide: AGNAA[Cit]DNKKTR
# Method: as §1
# [9] = target: T1, peptide no. 9 (human histone 2A); assay: ELISA, Ab 10 ug/well
# Method: as §1
# [10] = target: T2, peptide no. 2 (human histone 2A); assay: ELISA, Ab 10 ug/well
# Method: as §1
# [11] = target: T9, peptide no. 1 (human histone 2A) (human, also: biotin-labelled); assay: ELISA, Ab 10 ug/well
# T9 construct: also called peptide 1; AAASGXGKQGGK
# T9 peptide: AAASG[Cit]GKQGGK
# Method: as §1
# [12] = target: T10, peptide no. 3 (human histone 2A) (human, also: biotin-labelled); assay: ELISA, Ab 10 ug/well
# T10 construct: also called peptide 3
# T10 peptide: KSRSS[Cit]AGLQFP
# Method: as §1
# CFC-1 [13] = target: T3, CFC-1; assay: ELISA, Ab 10 ug/well
# Method: as §1
# [14] = target: T11, peptide no. 11 (human histone 2A) (human, also: biotin-labelled); assay: ELISA, Ab 10 ug/well
# T11 construct: also called peptide 11
# T11 peptide: LQLAI[Cit]NDEELN
# Method: as §1
# [15] = target: T12, peptide no. 7 (human histone 2A) (human, also: biotin-labelled); assay: ELISA, Ab 10 ug/well
# T12 construct: also called peptide 7
# T12 peptide: GNYSE[Cit]VGAGAP
# Method: as §1
# [16] = target: T13, peptide no. 5 (human histone 2A) (human, also: biotin-labelled); assay: ELISA, Ab 10 ug/well
# T13 construct: also called peptide 5
# T13 peptide: VGRVH[Cit]LLRKGN
# Method: as §1
# huFibα XG = target: T14, huFibα XG (human, X at position 8 = citrulline; biotin-labelled); assay: ELISA, Ab 2 ug/well
# T14 peptide: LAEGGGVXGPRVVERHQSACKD
# Method: as §1, with “fibrinogen and vimentin” for “histone 2A”
# Biotin-labeled and citrulline-containing fibrinogen and vimentin peptides (Table 5) were also tested for reactivity with the therapeutic antibodies. Peptides were coated on 96-well NEUTRAVIDIN®-ELISA plates.
# [17] = target: T4, peptide no. 10 (human histone 2A); assay: ELISA, Ab 0.016 ug/well
# Method: as §1
# [18] = target: T5, peptide no. 12 (human histone 2A); assay: ELISA, Ab 0.016 ug/well
# Method: as §1
# [19] = target: T6, peptide no. 4 (human histone 2A); assay: ELISA, Ab 0.016 ug/well
# Method: as §1
# [20] = target: T7, peptide no. 6 (human histone 2A); assay: ELISA, Ab 0.016 ug/well
# Method: as §1
# [21] = target: T8, peptide no. 8 (human histone 2A); assay: ELISA, Ab 0.016 ug/well
# Method: as §1
# [22] = target: T1, peptide no. 9 (human histone 2A); assay: ELISA, Ab 0.016 ug/well
# Method: as §1
# [23] = target: T2, peptide no. 2 (human histone 2A); assay: ELISA, Ab 0.016 ug/well
# Method: as §1
# [24] = target: T9, peptide no. 1 (human histone 2A); assay: ELISA, Ab 0.016 ug/well
# Method: as §1
# [25] = target: T10, peptide no. 3 (human histone 2A); assay: ELISA, Ab 0.016 ug/well
# Method: as §1
# CFC-1 [26] = target: T3, CFC-1; assay: ELISA, Ab 0.016 ug/well
# Method: as §1
# [27] = target: T11, peptide no. 11 (human histone 2A); assay: ELISA, Ab 0.016 ug/well
# Method: as §1
# [28] = target: T12, peptide no. 7 (human histone 2A); assay: ELISA, Ab 0.016 ug/well
# Method: as §1
# [29] = target: T13, peptide no. 5 (human histone 2A); assay: ELISA, Ab 0.016 ug/well
# Method: as §1
binder,measurement,setting,value
B1,OD,[1],0.059 OD450
same,OD,[2],0.055 OD450
same,OD,CFC-1 [3],0.621 OD450
same,OD,[4],0.091 OD450
same,OD,[5],0.083 OD450
same,OD,[6],2.06 OD450
same,OD,[7],1.41 OD450
same,OD,[8],0.082 OD450
same,OD,[9],0.09 OD450
same,OD,[10],0.552 OD450
same,OD,[11],3.11 OD450
same,OD,[12],0.619 OD450
same,OD,CFC-1 [13],3.27 OD450
same,OD,[14],0.088 OD450
same,OD,[15],0.08 OD450
same,OD,[16],0.239 OD450
same,OD,huFibα XG,1.51 OD450
same,OD,[17],0.066 OD450
same,OD,[18],0.057 OD450
same,OD,[19],0.084 OD450
same,OD,[20],0.075 OD450
same,OD,[21],0.063 OD450
same,OD,[22],0.064 OD450
same,OD,[23],0.065 OD450
same,OD,[24],0.843 OD450
same,OD,[25],0.07 OD450
same,OD,CFC-1 [26],1.46 OD450
same,OD,[27],0.069 OD450
same,OD,[28],0.061 OD450
same,OD,[29],0.065 OD450
